The experiment has as its target HLA-A*02 molecules at the surface of T1 cells (human (endogenous in T1 cells)). The experiment can be described thus: flow cytometry on cells; T1 cells pulsed with 20 µM NY_(157-165) peptide (three pulses, stability control; or freshly for 2 h, day control); HLA-A*02/NY_(157-165) complexes detected with a complex-specific F(ab) and a PE-conjugated second antibody 24, 48 and 96 h after the last loading. (In general: In flow cytometry, cells or beads pass a laser one at a time.)

As to “NY-ESO-1_(157-165) peptide (from UniProt P78358 157-165)”, the percent of the complexes of freshly peptide-pulsed T1 cells still detected was determined as 64%.

For the origin of these results see publication PMC3688974.
